Source: patent publication US20240150411A1 (University of Washington, published 2024)

Target: T1, I53-50A trimer
T1 construct: also called trimeric I53-50A
T1 chain: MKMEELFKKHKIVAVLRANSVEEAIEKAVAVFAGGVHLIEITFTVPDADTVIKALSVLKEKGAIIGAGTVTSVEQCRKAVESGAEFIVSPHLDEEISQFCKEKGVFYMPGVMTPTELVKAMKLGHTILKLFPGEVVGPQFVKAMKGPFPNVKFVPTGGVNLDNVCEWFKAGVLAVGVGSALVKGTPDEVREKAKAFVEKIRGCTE
Experiment: in vitro co-assembly into partial valency nanostructures, purified by size exclusion chromatography

B1: I53-50B.4PosT1 pentamer (designed binder)
chain: MNQHSHKDHETVRIAVVRARWHAEIVDACVSAFEAAMRDIGGDRFAVDVFDVPGAYEIPLHARTLAETGRYGAVLGTAFVVNGGIYRHEFVASAVINGMMNVQLNTGVPVLSAVLTPHNYDKSKAHTLLFLALFAVKGMEAARACVEILAAREKIAA
notes: Expressed and purified as in Bale et al; also called I53-50B.4PT1; I53-50B.4PosT1 pentamers
Q: Does B1 bind?
A: binds
